Measurements reported in patent US8927007B2, “Formulations for treatment with glucosinolates” (priority 2010, dated 2015).

Key:
[1] = Activity of myrosinase immobilized on Concanavalin A-Sepharose gel (sinigrin hydrolysis, absorbance at 227 nm); format: biochemical
Procedure: (§1) Con-A gel (1 ml) was packed in a 3 ml syringe, washed with 5 portions of 5 ml of 10 mM midazole, 1 mD EDTA, 1 mM DTT, 30% glycerol, pH 6.0. Subsequently, 10 ml of purified myrosinase (2.9 units/ml) (from 7 day-old daikon sprouts as described in Shikita et al. Biochem J. (1999) 341:725-732) were applied to the column and the effluent collected and reapplied to the column 3 more times until no activity was detected in the effluent. After washing 5 times with 5 ml of 33 mM potassium phosphate buffer (pH 6.0), 1 mM EDTA, and 0.5 mM ascorbate, the gel was transferred to a 10 ml syringe and mixed with 10 ml of 10 mM sinigrin in 33 mM potassium phosphate buffer. Aliquots (20 μl of the solution was withdrawn from the mixture every 30 sec., diluted with 0.98 ml of the 33 mM phosphate buffer, and the absorbance was measured at 227 nm against the same buffer. After 10 collections (5 min), the gel was washed with 3 portions of 5 ml of 33 mM potassium phosphate buffer, and 3 portions of 5 ml 10 mM midazole, 1 mM EDTA, 1 mD DTT, 30% glycerol, pH 6.0, and stored at 4° C. for the next test.

[2] = Long-term stability of myrosinase on Concanavalin A-Sepharose gels; format: physicochemical
Procedure: as §1, with “After 10 collections (5 min), the gel was washed with 3 portions of 5 ml of 33 mM potassium phosphate buffer, and 3 portions of 5 ml 10 mM midazole, 1 mM EDTA, 1 mD DTT, 30% glycerol, pH 6.0, and stored at 4° C. for the next test.” left out

myrosinase (β-thioglucoside glucohydrolase) [Immobilized enzyme]
sinigrin hydrolyzed ([1]; immobilized on Con-A gel, 10 ml of 10 mM sinigrin in 33 mM potassium phosphate buffer, 10 collections (5 min)): more than 25 μmol
enzymatic activity when immobilized on Con-A gels ([1]; immobilized on Con-A gels): retain its enzymatic activity
stability without refrigeration ([2]; immobilized on Con-A gels, without refrigeration): stable indefinitely
changes of activity on storage ([2]; over at least the next 7 days, kept at 4° C. in 20% glycerol): no significant changes of activity
stability of immobilized enzyme at room temperature ([2]; room temperature, period of several weeks): stable
elution of the enzyme from the column ([2]; under conditions required for hydrolysis): no significant elution
